Where a chain is given by its changes, count along the chain named. In names and notes the source's numbering stands.
Biological target: wild-type histone H3.3–H4 tetramers (human, UniProt P84243 1-136; P62805 1-103)
Test: pull-down

B1: GST–DAXX tower (183–251) E225A (domain or fragment)
chain: GSRRQIQRLEQLLALYVAEIRRLQEKELDLSELDDPDSAYLQAARLKRKLIRLFGRLCELKDCSSLTGR
B1: binds.

B2: GST–DAXX tower (183–251) Q206A (domain or fragment)
chain: B1 chain with Q24A, A43E
B2: binds.

B3: GST–DAXX tower (183–251) K229A (domain or fragment)
chain: B1 chain with A43E, K47A
B3: binds.

— publication PMC4056191 (Nature, 2012)
